Assay results taken from the DeepSol protein solubility set.

Test: soluble on expression in E. coli; label from the status in PepcDB or PDB records

**Q.** For “MGSDKIHHHHHHCDLERYPLTDLSEETFWNSESNAELALTSLYRGSLTDGVEYNPSDWWSYHGMIMMEHLSDNAFDRRGENNPFFKISSGNLTADNAFIKRYWETSYKRIGYCNRFLVGIQNSSESEKKTRMIAEARFLRATQYFYLASYFKNVPLVENVLTGEEANNVTKTSQADILKWCVTEFTAAAADLPRFSAIPAGEAGRACKQAALAFLGRTCMLQKDWKSGAKAFHDIMELGDNAINANYQELFYPSTGTSNKENIFYIQYLENYLGTGLPQHALSAKDGGWSLVNPAADLYESYEFKDGTPFSYDDPRYDPSNLGKDRDPRLDYTIYYNGAIFMGTEYKMSPDYSAAKKEKLDYTSEASRTGFMMRKYFEESTPINDVQSANGLTPVIRYAEVLLGYLECLVEDNQTITQGILDETINAVRGRASVNMPPVTEVTPAKLREIVRHERRIELAMEGIRYWDIMRWGIAHEVLSQKIWGAPYPGSTQYATTTKEVDPTGNYRWYVGKRAFRNPTDYTWPIPQSEQNINPNLRD”, which “soluble on expression in E. coli” value is on record?
**A.** not soluble

**Q.** For “SITDILSAEDIAAALQECQDPDTFEPQKFFQTSGLSKMSASQVKDIFRFIDNDQSGYLDGDELKYFLQKFQSDARELTESETKSLMDAADNDGDGKIGADEFQEMVHS”, which “soluble on expression in E. coli” value is on record?
**A.** soluble

**Q.** With “MAHHHHHHMLSLCKSLSSDAPTRTKTRVVLSMFNASHVDELLASTTRTLQRSQVLLDERRSVIQSQQGLPPMFCVASSSAASTSVGSSAAAPYASASSSFADTVRSLQSLSELRSYVEATAEMMKRVREEGMEPSPAMQQRRARGQDFALLQSMTRGLRGAMTAAWQMSETTAALWAFSTEACGGAEEAAAAEDAASAAAGSTLCAVPGARSGGTRSSGAQLTSTLIFSAFCVDLAIAAPRAASAVAAELESVFEPSSDNGRPSSLVSEWMRDGNVKLSALLRDVAALLPPPVKTRLVARLADVLFRPSPALPRSPKESSGHPLGCELLSGGQLLLPSLDYYLLEQYPSSLASRWFLQPLQATAEHLRADYYASADQFHVQCRWLLRLVLTLLYACQSAALPTSTASRPPLERRLRTAQRLYDAWLIPLEKTFGNGTARHGMSVSFNRALVQPHGHMVERLLFTSSPASGVSGVSKVVQQSREWSGILYSAQYRLLLILEKLAHSEVAQVNGTSSTSAKQRTYETMLRQNGGKVSVSLLQTLAEDKQLLLDETPSRSPDGHRLYKLHDGLLDDSGKAVFVYLDDGALFTKVGRARAFQRVKSVEDIFKPLQ” as the sequence, how does the “soluble on expression in E. coli” value read?
**A.** not soluble

**Q.** Which “soluble on expression in E. coli” value does the source give for “SASFDGPKFKMTDGSYVQTKTIDVGSSTDISPYLSLIREDSILNGNRAVIFDVYWDVGFPETETKTKTSGWSLSSVKLSTRNLCLFLRLPKPFHDNLKDLYRFFASKFVTFVGVQIEEDLDLLRENHGLVIRNAINVGKLAAEARGTLVLEFLGTRELAHRVLWSDLGQLDSIEAKWEKAGPEEQLEAAAIEGWLIVNVWDQLSDE” here?
**A.** soluble

**Q.** Which “soluble on expression in E. coli” value does the source give for “EITPLIFQKQTTEPVENLRTYTALEMEGRDIYIREGCNVCHSQMIRPFRAETERYGHYSVAGESVWEHPFLWGSKRTGPDLARVGQRYSDEWHRVHLINPRDVVPESNMPGFPWLEENVLDGELTSKKIAIFRDNFGVPYTEEDVKNASEEVKGKTEMDALIAYLQSLGH” here?
**A.** not soluble

**Q.** With “MIAQLQKSLIQQNSTFEKKNNVEVAPIAKISLKDRLASLNNSAEQWKSRPERQPAVQQRRTSANVLQDLPIFQRAQQLHQQQQRPQSFPVVQEKPCDITSGLKKFFGSNPTTSGASSSLPKISEITASNDIDLDAISSKATPVLKTVTRPRAPNRKKSDKSSTFDERIRLDAVKIDEEAFAVVEEEPEKLETQEQAIAAIQGAKQLLKSPTKVSPYPDVMLIQVRGSKNVDVRLVAPAMSSVHEVACFVVVHQKHLMKYEGLYSNILEKTKASQLCIEILGKSDLNCTAESIVTVTGASRSTLSKLLFCSENSESSSENNNYHQASSVEPFETTVAKLNLVLRIAGDNTAETCSRRERLSYEIMKPSEVLIFDFGSEIYVWTGRYSNKVSSAYAQEYAKQLMKKPVKNGKFILGDAESIDQDGRPEWTLSRKIHQGVLDTLFKAKFSDWPETREVLTTCKPRALISKKNPEVKTYEDVKVVNQDDEVADLVERMLQEQELDPILVLEDQEIDRKIHDVISEDRSLWVLRGEVLQSIEEFTEHFDSRRCYVLRWKYRIQKSGVRRIKTGKEEERETGRSRIAFWYWLGEHTTPKQHGLCALRIKEIDRDNSPRIRIADGNEPALFLALFDGKFMVSSDISEMKPLRRYVVIGANSRETSLREIDDLNSPLRSHAAYIEVEKDILGPSSVVCGANCTEDQVHFVLAHAEYMRQKAGVKGNSAEIEVEGDKKSRSWVNSNGRKRAMRVWRLFDNESEQVNHLSGHKNCAFTFSQQVLKETILIDVGDALWLWSEEVITTFALKVAEKYWKDRSGPAKVVYKGAEPEQFKGLFMKWEMFEVEDDKPSDPPRDVSDLLKERCRTFSLEELKERTSLPAGMDMRRLESYLTDDDFMKVFKIERSEFYAQKTWKQNDARKRVGLF” as the sequence, how does the “soluble on expression in E. coli” value read?
**A.** not soluble

**Q.** With “MGSDKIHHHHHHMGHKVTGSDANVYPPMSTQLEQQGIELIQGFDPAQLGKEGDNQPDLVVIGNAMSRGNPCVEAVLNRGIKYTSGPQFLSEHILQDRWVLAVAGTHGKTSTSSMLAWVLEYCGYEPGFLIGGVPQNFGVSARLGNSVFFVVEADEYDSAFFDKRSKFVHYHPRTLVINNLEFDHADIFADLAAIQRQFNHVIRTVPGEGKVIWPSDVEAVQQVIDMGCWSEQEIYSKATSLTTGLAEHSVNVSANQGEPNAWQPRTIADDGHEFEVLFKGESQGIVNWSLIGQHNIENAIMAIAAARHVGVAPSHAIEALAQFSPPKRRLELLATVNGVSVYDDFAHHPTAIATTLQGLRAKVASSDNANGNIIVVLEPRSNTMKSGVHKDTLANSMVLADVGYLYQADNIDWDIKASMANAPIPVTVFNNIEDIINAVAATANQGDTVVIMSNGGFNGIHQKMIKALA” as the sequence, how does the “soluble on expression in E. coli” value read?
**A.** not soluble

**Q.** With “MERKINRREKEKEYEGKHNSLEDTDQGKNCKSTLMTLNVGGYLYITQKQTLTKYPDTFLEGIVNGKILCPFDADGHYFIDRDGLLFRHVLNFLRNGELLLPEGFRENQLLAQEAEFFQLKGLAEEVKSRWEKEQLTPRETTFLEITDNHDRSQGLRIFCNAPDFISKIKSRIVLVSKSRLDGFPEEFSISSNIIRFKYFIKSENGTRLVLKEDNTFVCTLETLKFEAIMMALKCGFRLLTSLDCSKGSIVHSDALHFIK” as the sequence, how does the “soluble on expression in E. coli” value read?
**A.** soluble

**Q.** For “GPGSMSNAVSGVIDARWMRFLRECKQRELVAEIEVLRRTFEATLDRKKGFSTTLLEELSVAEEQCRHAFRSHMDVVSSLLQLHAARTKDLEADLDANVAEMQQDFEYERAELELKHMIEMDDLRLILDNMAAEAEMLEKKLQEETSEGHETAAEKMDEAMREMEADLNKVEDGLRGELDSRYKKFMSAAQANMKEYTAKCKEDQETTERIAAQLRKIEKLQSSVSSWRTNIARNAKEWEDRNAAIQAERDATLSHLKKLKDKMQRWRELQSKALVELVKEANATEEALQATSKRAVRLLRLVELCKPMETEREQVLLHEANISSAAVEAETKRRVAAESSGNAQDDVLRGGDAAPAANEQWLSLDRFWVKHNKVVLDNAALTQERFLLEEENRVLQEVLKQYLDDVSISDQVMRQSNTLLLTQGANYNVVQAANASDNSVVRGYNVIEGNKFVNDQSRQAISH”, which “soluble on expression in E. coli” value is on record?
**A.** not soluble

**Q.** Which “soluble on expression in E. coli” value does the source give for “GPGSMANGVTANSMRVNVKAPDLGAFPLDHYSECKSQVEAYYRCLKSNEYVTPLCRDQMREYLQCRMDRGLMKPADLDGFGIPKTEFVPTRQHRIDLKQQWLRQKMNQVTVVWEENYRRDDLQVPDGYEREKGGGDGGGGNPKPVGEKVNT” here?
**A.** not soluble

**Q.** For “MEPYIKALITDSYEQNKNFFRCRFMKNRRGDECNFVGTFSDTLTHFSIHTKVYLFECEGCTKQVVDFMDLVEHRSPSTGAICRGTVENMRQLRLERMKTIDAHRCRNVFIVGATRSEFEDYLRYKNTHGKQQSFGTPLYNDNEEEQTRHQPQQQRSSTPLAPTTPTPPPPTQAPTNHRELLLDFPLPVDFSRPPPVIPPEYFFNAPSVSQQHHQRSQYQHYAPQPQGNRTPGYVARPITPHGNPKPQNYQIGGGWNPYANPPSAKDAPATVRDNRSPSRPRGDFRRDRSQSRGAETHCQQSYQPPADPLQDRSRNGRSPPMGTHSHYGQNAKPAQNGNTSHYELRSRSRGRATVPMNANFRAGHQTGSSSRLESRSRATASVGARAPSRAPAPSSTSRETRSTRRSPSKGPSAPAYTLPFGGSTPNHEPMDLELEDPVPPPRPDRPRASTSLNTSVSQIKRNEVQTGVYNIRPQRVQDTVQKARTAVGYAGTRNRSPLREADAEEIAATEALKNRFAVKSRGTAKAKANSNRGAALLESIEPTNRKIETAEEREKKQNDLYLEKMRKIREKQRLEQEKIDDVVVDSGNLPTIAPNAAGTPPPQSVAAMLEPKEESEEDEPSTSASVPFQRRMNSPQTHATSYARRSDGKRHPSKSRSSRDDRANRRDRDRDSDGRCGDDRRRDHRSHPYERH”, which “soluble on expression in E. coli” value is on record?
**A.** not soluble

**Q.** For “RATDPFIVKHPLTGEKTIIAGYPWFSDWGRDVMISFPGLVLIPRRFEDAKSILKNFSSNCRRGLIPNNFPAFGGEPVYNTVDASLWFIHSLSRYFAYTEDLLFLSDIWGTVEDIIDNYSKGTDFGIGMDSDYLIRQGPQLTWMDAKVNDIPVTPRAGKACEINALWYNALRTACRLGDLLGRDTSSYETLAAGVASNFERVFWNPENNCLHDIVSEDKAGNQIKDSSIRPNQIFAVSLPYTMLSPEKEKAIVDRVEKDLLTPFGLRTLSLDDPSYIGLYRGGSESRDSAYHNGTVWPWLLGPYVKAYRKVHNYSKKSLEDMRALLQGFDSHLETAGIGTISEVFDGDFPHSPGGCIAQAWSVAEILRAYVEDVLGIKP”, which “soluble on expression in E. coli” value is on record?
**A.** not soluble

**Q.** Which “soluble on expression in E. coli” value does the source give for “MTNEAIQNREPFLQNLREKLDVEKQPVSAHPFEPVNHLPEEQLADKTPAELLTIVKERVETIHTNLVETTQENLLTTIQQIVAEFGGDNLLLPTDARFEAYGLADLAKSLEAVSVKQWQPGSEQREANIQTAAQANIAIAFAEFLLAESGTIVVESNAGQGRALHFLPKHYISIIPFSKLVPRSTQPAAFYTEKIEKGEKIGSAIHFISGPSNSGDIEMQLVVGLHGPLEVCYVVVMDR” here?
**A.** not soluble

**Q.** Which “soluble on expression in E. coli” value does the source give for “MNGQNFNEMLHDEQVFAEFMVPNAHTTPNLWRIQQQNQENQIPQNFQHLDFQYFQYQNQKQEVVHGAHCMGTVGSSWNEQVAVKKPSSSQSRKGGKNKEEAREKNHQKNKALLEMLNQVDPAVIDAEIEEQKEKQRLRKNRGRYDPIGAHGAQQGTRGVQNEVQYHRNFQNNNNNNS” here?
**A.** not soluble

**Q.** Which “soluble on expression in E. coli” value does the source give for “MASSYSASAEPARVRALVYGHHGDPAKVVELKNLELAAVRGSDVRVKMLAAPINPSDINMIQGNYGLLPELPAVGGNEGVAQVVAVGSNVTGLKPGDWVIPANAGLGTWRTEAVFSEEALIQVPSDIPLQSAATLGVNPCTAYRMLMDFEQLQPGDSVIQNASNSGVGQAVIQIAAALGLRTINVVRDRPDIQKLSDRLKSLGAEHVITEEELRRPEMKNFFKDMPQPRLALNCVGGKSSTELLRQLARGGTMVTYGGMAKQPVVASVSLLIFKDLKLRGFWLSQWKKDHSPDQFKELILTLCDLIRRGQLTAPACSQVPLQDYQSALEASMKPFISSKQILTM” here?
**A.** soluble

**Q.** For “MEFTDPYTVDSLQCFNGFHYRGYRINQSDTDKVNRLIAIIRQEREKNIGPAAGDIIEYTCRNGDWFQSAHIEEICDGHFKICLSGSIPFCYESGDGVGYNVHEGIWTYPKRAALKPAGIREKQFRTWGHAGKCANGEVYFMACVRAWQYTEPEPLYGRYTTRNWSKYHINRQPDPEHDGEFFYMTEGFTLYSREELDRLTGILHGKLFDGIYSNSLVLWGYHMKWEILTEQEWNETKAEIHISFLGKSPVKIITCDDTHTITVYKKK”, which “soluble on expression in E. coli” value is on record?
**A.** not soluble

**Q.** For “GSPASGTSLSAAIHRTQLWFHGRISREESQRLIGQQGLVDGLFLVRESQRNPQGFVLSLCHLQKVKHYLILPSEEEGRLYFSMDDGQTRFTDLLQLVEFHQLNRGILPCLLRHCCTRVAL”, which “soluble on expression in E. coli” value is on record?
**A.** soluble
